Assay results as given in patent US20160053248A1, “SYSTEMS AND METHODS FOR EVOLVING ENZYMES WITH DESIRED ACTIVITIES” (Potomac Affinity Proteins, LLC, priority 2009, published 2016).
Numbering of substitutions follows the chain as printed. Names and notes keep the numbering of the source. Primed or numbered codes have the meaning given here. No end group written: not given here. *: point of attachment. Dabcyl′ = CN(C)c1ccc(/N=N/c2ccc(C(=O)*)cc2)cc1

Assays:
[1] = target: SBT189-Dabcyl conjugate (Bacillus amyloliquefaciens (Bacillus velezensis)) (UniProt P00782); test: single turn-over kinetics, quenching of GFP fluorescence by Dabcyl; 0.1M KPO4, pH 7.2, 5 mM azide, 22° C
SBT189 [2] = conditions: read-out: apparent KD for azide; anion binding to the enzyme-substrate complex
Description: The acylation reaction: Step 2 describes conversion of the ternary complex into an acyl-enzyme with the concomitant release to the C-terminal portion of the substrate. With substrates used in phage display, the GB domain is released concomitantly with the acylation step. If a fluorescent reporter group is attached to subtilisin, a decrease in energy transfer enables time-dependent quantitation of acylation.

GA-PFRAL-S-GB [3] = tested on: GA-PFRAL-S-GB
SBT189 [4] = test: Transient state kinetics with FRET peptide: product release and product binding; design: species or system Bacillus amyloliquefaciens; conditions: not influenced by azide concentration
Protocol: The deacylation reaction and product release: A self-quenched FRET peptide that becomes highly fluorescent when cleaved (Dabcyl-EEDKLFRAL-SATE(EDANS)G (SEQ ID NO:16)) was synthesized. This peptide has been used to determine transient state kinetic parameters. Deacylation of SBT189 in 50 mM azide is faster (3.3 s^−1) than the wild type counterpart (1.8 s^−1). The rate of product (Dabcyl-EEDKLFRAL; (SEQ ID NO:17)) release is 6 s^−1 and Kp is 1.2 μM. Product binding is not influenced by azide concentration. Strong product binding of subtilisin-phage to GA-PCOGNATE- is used for the collection of active mutants in the release step in phage selection (see FIG. 5). Binding is constitutive at this step, however, and is not used to increase selectivity.

[5] = target: GB-GFP fusion protein with cognate variation LFRAL-MA, P06654
[6] = target: GB-GFP fusion protein with cognate variation LFRAM-SA, P06654
[7] = target: GB-GFP fusion protein with cognate variation LLRAL-SA, P06654
[8] = target: GB-GFP fusion protein with cognate variation LFQSL-SA, P06654
[9] = target: GB-GFP fusion protein with cognate variation LFRAY-SA, P06654
[10] = target: GB-GFP fusion protein with cognate variation VFKAM-SG, P06654
[11] = target: GB-GFP fusion protein with cognate variation LYRAL-SA, P06654
prodomain variant pS170 = target: T1, prodomain variant pS170
T1 chain: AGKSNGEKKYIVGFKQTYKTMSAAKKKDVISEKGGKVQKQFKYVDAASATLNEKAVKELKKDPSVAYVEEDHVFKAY

prodomain variant pS156 = target: T2, prodomain variant pS156
T2 chain: T1 chain with Y18M, K19S

GA-PFRAL-S-GB [12] = target: GA-PFRAL-S-GB; remark: listed apart in the source
[13] = target: T3, subtilisin variant SBT189 (Bacillus amyloliquefaciens (Bacillus …, UniProt P00782 108-382)); test: complex formed at 100 µM for the activation cascade
T3 construct: Engineered subtilisin BPN' variant with D32A; also called S189; RSUB1
T3 chain: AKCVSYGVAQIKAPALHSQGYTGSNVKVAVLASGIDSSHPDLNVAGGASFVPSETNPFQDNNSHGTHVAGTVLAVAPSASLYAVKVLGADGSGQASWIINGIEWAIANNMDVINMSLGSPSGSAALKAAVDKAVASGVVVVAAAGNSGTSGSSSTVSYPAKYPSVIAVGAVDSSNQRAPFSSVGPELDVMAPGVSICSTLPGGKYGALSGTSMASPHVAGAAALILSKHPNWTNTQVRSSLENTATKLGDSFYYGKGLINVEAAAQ
Protocol: (§1) To do this complexes of SBT189 were formed with two different prodomain inhibitors. The first complex contained 100 μM of SBT189 and prodomain variant pS156, and the second complex contained 100 μM SBT189 and prodomain variant pS170. To start the activation cascade, 10 nM wild type subtilisin was added to each complex. Wild type subtilisin is able to cleave both the loop sequence MSTM (SEQ ID NO:23) in pS156 and the loop sequence YKTM (SEQ ID NO:22) in pS170. After 5 minutes of digestion, the wild type subtilisin was inactivated by the addition of EDTA to 1 mM and heating to 55° C. for 10 minutes. Azide was then added to the reactions to 10 mM and the activity of free SBT189 subtilisin was then measured as a function of time. The release of free SBT189 from the pS156 complex occurs at a rate of about 1 days⁻¹. This is because the cleavage of the loop sequence MSTM (SEQ ID NO:23) by SBT189 is very slow. In contrast, the complete activation of SBT189 from the pS170 complex occurs within 10 minutes. Because SBT189 can readily cleave the loop sequence YKTL (SEQ ID NO:24), SBT189 is rapidly released after the self-activating chain reaction is initiated by wild type subtilisin. Thus the protease signal from the pS170 complex increases about 10⁴-fold in 10 minutes (from 10 nM to 100 μM).

SBT189 [14] = test: Activation cascade: release of free SBT189 from prodomain inhibitor complexes; type: biochemical, Bacillus amyloliquefaciens
Protocol: as §1, with “days^−1.” for “days⁻¹.”, “10^4-fold” for “10⁴-fold”

[15] = target: T3, subtilisin variant SBT189; test: transient state kinetics with the FRET peptide
[16] = 100 μM complex, started with 10 nM wild type subtilisin, 10 mM azide

For “GB-GFP fusion protein with cognate variation LLRAL-SA (from UniProt P06654 228-282)”, the KS [1] was 670 µM.

For `[N-]=[N+]=[N-]` [azide], the Kd (SBT189 [2]) was 50 mM.

“subtilisin synthesized as a fusion protein on the surface of M13 phage” was tested, and the “enrichment of phagemid relative to helper phage after one round of catch and release selection” value (GA-PFRAL-S-GB [3]) was 350 fold enrichment.

Molecule “GB-GFP fusion protein with cognate variation LFRAY-SA (from UniProt P06654 228-282)” has a KS [1] of 1900 µM.

“GB-GFP fusion protein with cognate variation LFRAL-MA (from UniProt P06654 228-282)” was tested, and the KS [1] was 24 µM.

In the case of Dabcyl-EEDKLFRAL ({Dabcyl′}-EEDKLFRAL), the “rate of product release” value (SBT189 [4]) is reported as 6 s⁻¹.

With “GB-GFP fusion protein with cognate variation LFQSL-SA (from UniProt P06654 228-282)” the KS [1] was 66 µM.

“GB-LFRAL-SA-GFP (from UniProt P06654 228-282)” showed a KS [1] of 16 µM.

Molecule “GB-GFP fusion protein with cognate variation VFKAM-SG (from UniProt P06654 228-282)” has a KS [1] of 43 µM.

For “GB-GFP fusion protein with cognate variation LYRAL-SA (from UniProt P06654 228-282)”, the KS [1] was 88 µM.

“GB-GFP fusion protein with cognate variation LFRAM-SA (from UniProt P06654 228-282)” showed a KS [1] of 36 µM.

B1: SBT189-Dabcyl conjugate (protein)
chain: T3 chain
Work on B1 yielded a Relative k2/KS [5] of 0.027, an acylation rate (k2) [5] of 0.06 s⁻¹ and a Relative k2/KS (GB-LFRAL-SA-GFP, P06654) of 1. For the same molecule, the “activity against the cognate sequence, relative to VFKAM-SG” value (GB-LFRAL-SA-GFP, P06654) was 250-times greater, the acylation rate (k2) (GB-LFRAL-SA-GFP, P06654) was 1.4 s⁻¹ and the Relative k2/KS [6] was 0.32. It also gave an acylation rate (k2) [6] of 1 s⁻¹, a Relative k2/KS [7] of 0.01 and an acylation rate (k2) [7] of 0.59 s⁻¹. The Relative k2/KS [8] was 0.04, the acylation rate (k2) [8] was 0.23 s⁻¹ and the Relative k2/KS [9] was 0.001. The acylation rate (k2) [9] was 0.17 s⁻¹, the Relative k2/KS [10] was 0.004 and the acylation rate (k2) [10] was 0.017 s⁻¹. For the same molecule, the Relative k2/KS [11] was 0.03 and the acylation rate (k2) [11] was 0.23 s⁻¹.

B2: subtilisin variant SBT189 (protein)
chain: T3 chain
B2 was tested, and the “digestion of the fusion protein, protein gel and MALDI-MS” value (GB-LFRAL-SA-GFP, P06654) was “The fusion protein was correctly and specifically processed to release GB-LFRAL and SA-GFP”, the “complete activation of SBT189 from the complex” value (prodomain variant pS170) was “occurs within 10 minutes” and the “increase of the protease signal from the complex” value (prodomain variant pS170) was “increases about 10^4-fold in 10 minutes (from 10 nM to 100 µM)”. For the same molecule, the “release of free SBT189 from the complex” value (prodomain variant pS156) was “about 1 days^-1” and the “cleavage rate in the absence of azide” value (GA-PFRAL-S-GB [12]) was 0.12 min⁻¹.

B3: RSUB1(AF350) (protein)
chain: T3 chain
With B3 the “rate of GB release in saturating azide” value (GA-PFRAL-S-GB [12]) was 6.4 s⁻¹ and the “rate of GB release with no azide present” value (GA-PFRAL-S-GB [12]) was 0.0019 s⁻¹.

B4: prodomain variant pS170 (other)
chain: T1 chain
notes: M18Y, S19K, A74F, H75K against the prodomain; also called p5170
B4 was tested, and the binding result [13] was “binds”, the “time to complete activation of SBT189 from the complex” value (SBT189 [14]; [16]) was at most 10 min and the “increase of protease signal” value (SBT189 [14]; in 10 minutes (from 10 nM to 100 μM)) was “about 10^4 fold”.

B5: pS156 (protein)
chain: T1 chain with Y18M, K19S
B5 was tested, and the “rate of release of free SBT189 from the complex” value (SBT189 [14]; [16]) was “about 1 days^−1”.

B6: wild type subtilisin (protein)
chain: AQSVPYGVSQIKAPALHSQGYTGSNVKVAVIDSGIDSSHPDLKVAGGASMVPSETNPFQDNNSHGTHVAGTVAALNNSIGVLGVAPSASLYAVKVLGADGSGQYSWIINGIEWAIANNMDVINMSLGGPSGSAALKAAVDKAVASGVVVVAAAGNEGTSGSSSTVGYPGKYPSVIAVGAVDSSNQRASFSSVGPELDVMAPGVSIQSTLPGNKYGAYNGTSMASPHVAGAAALILSKHPNWTNTQVRSSLENTTTKLGDSFYYGKGLINVQAAAQ
B6 was tested, and the “cleavage of the prodomain loop” value (prodomain variant pS170) was “able to cleave” and the “cleavage of the prodomain loop” value (prodomain variant pS156) was “able to cleave”.

B7: Dabcyl-EEDKLFRAL (peptide)
peptide: {Dabcyl′}-EEDKLFRAL
notes: Acyl-side cleavage product of the FRET peptide; also called product
With B7 the koff [15] was 6 s⁻¹.
